Experimental data from patent publication US20140186354A1 (published 2014).

T1: human recombinant HER4 ECD (human, UniProt Q15303 26-651)
T1 sequence: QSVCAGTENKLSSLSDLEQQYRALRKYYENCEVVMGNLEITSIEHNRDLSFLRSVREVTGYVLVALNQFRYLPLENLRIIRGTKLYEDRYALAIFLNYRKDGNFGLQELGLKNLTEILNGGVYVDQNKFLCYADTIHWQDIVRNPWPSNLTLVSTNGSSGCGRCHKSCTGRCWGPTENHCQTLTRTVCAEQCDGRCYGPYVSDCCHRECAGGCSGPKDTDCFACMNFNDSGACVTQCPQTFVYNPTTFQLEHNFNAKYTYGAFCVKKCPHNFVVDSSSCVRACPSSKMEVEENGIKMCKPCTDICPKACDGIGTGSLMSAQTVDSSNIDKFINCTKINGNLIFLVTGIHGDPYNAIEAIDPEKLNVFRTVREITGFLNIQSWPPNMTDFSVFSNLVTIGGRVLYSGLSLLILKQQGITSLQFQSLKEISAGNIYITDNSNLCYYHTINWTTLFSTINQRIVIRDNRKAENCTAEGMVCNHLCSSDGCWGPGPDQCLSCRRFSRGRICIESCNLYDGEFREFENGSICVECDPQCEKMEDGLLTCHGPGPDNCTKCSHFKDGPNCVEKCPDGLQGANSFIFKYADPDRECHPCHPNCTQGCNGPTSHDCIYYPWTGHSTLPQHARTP

T2: HER4 ECD-HRG complex (human, UniProt Q15303 26-651)
T2 construct: HER4 ECD pre-incubated with a 5-fold molar excess of Heregulin; also called Her-4 ECD/Heregulin complex
T2 sequence 1: T1 sequence
T2 sequence 2: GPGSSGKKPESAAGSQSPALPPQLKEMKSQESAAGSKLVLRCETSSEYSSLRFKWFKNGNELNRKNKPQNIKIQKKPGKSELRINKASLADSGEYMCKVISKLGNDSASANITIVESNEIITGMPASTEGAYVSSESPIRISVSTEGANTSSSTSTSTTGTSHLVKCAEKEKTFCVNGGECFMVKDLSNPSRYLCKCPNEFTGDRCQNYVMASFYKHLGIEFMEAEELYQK

B1: Recombinant Human Heregulin fragment (HRG) (ligand)
chain: T2 sequence 2
notes: also called Heregulin beta (HRG)
B2: anti-HER3/HER4 antibody M-05-74 (antibody, V domains shown)
VH: QVQLQQSGAELAKPGASVKMSCKTSGYTLTDYWIHWVKQRPGQGLEWIGYINPYTGYTESNQKFKDKATLTADKSSNTAYIQLSSLTSEDSAVYYCARPYYYGDYWGQGTTLTVSS
VL: QIVLTQSPAIMSASPGERVTITCSASSSVSYMHWFQQKPGTSPKLLIYSTSNLASGVPARFSGSGSGTSYSLTISRMEAEDAATYYCQQRSSYPFTFGSGTKLEIK
notes: Murine monoclonal antibody from hybridoma (supernatant or purified full length); also called M-074; M-5-74

What was measured:
[1] = biological target: T3, human recombinant HER3 ECD (human, UniProt P21860 20-643); experiment: complex formed in solution before SPR
T3 construct: 68 kDa; without ligand said to be in the closed conformation; also called human-Her3-ECD

[2] = biological target: T1, human recombinant HER4 ECD; experiment: complex formed in solution before SPR
HER3 ECD-HRG complex = biological target: T4, HER3 ECD-HRG complex (human, UniProt P21860 20-643); experiment: SPR Biacore T100
T4 construct: HER3 ECD pre-incubated with a 5-fold molar excess of Heregulin (open conformation); also called Her-3 ECD/Heregulin complex

HER4 ECD-HRG complex = biological target: T2, HER4 ECD-HRG complex; experiment: SPR Biacore T100

T4 sequence (P21860 20-643 limits assumed, one chain of several): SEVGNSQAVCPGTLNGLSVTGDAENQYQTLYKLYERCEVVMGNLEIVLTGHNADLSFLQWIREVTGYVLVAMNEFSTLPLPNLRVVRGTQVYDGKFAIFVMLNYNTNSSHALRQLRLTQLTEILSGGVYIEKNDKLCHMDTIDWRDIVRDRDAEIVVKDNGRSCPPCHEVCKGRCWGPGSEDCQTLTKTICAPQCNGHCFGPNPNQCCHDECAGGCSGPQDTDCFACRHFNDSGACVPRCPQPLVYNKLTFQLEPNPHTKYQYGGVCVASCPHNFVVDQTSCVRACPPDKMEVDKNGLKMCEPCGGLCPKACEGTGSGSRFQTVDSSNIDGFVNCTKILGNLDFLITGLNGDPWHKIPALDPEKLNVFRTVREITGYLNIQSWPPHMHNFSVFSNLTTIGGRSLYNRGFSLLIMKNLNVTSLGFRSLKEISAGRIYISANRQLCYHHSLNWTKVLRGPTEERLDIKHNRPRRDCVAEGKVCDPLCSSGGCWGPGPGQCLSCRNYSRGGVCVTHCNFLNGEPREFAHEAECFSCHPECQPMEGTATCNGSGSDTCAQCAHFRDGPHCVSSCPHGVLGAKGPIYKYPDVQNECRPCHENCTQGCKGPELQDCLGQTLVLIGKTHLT
T3 sequence (P21860 20-643): as the sequence (P21860 20-643 limits assumed, one chain of several) above

| Binder | binding result [1] | binding result [2] | ratio Ka(+Heregulin)/Ka(-Heregulin), against HER3-ECD (HER3 ECD-HRG complex) | ratio MR(+Heregulin)/MR(-Heregulin), against HER3-ECD (HER3 ECD-HRG complex) | ratio Ka(+Heregulin)/Ka(-Heregulin), against HER4-ECD (HER4 ECD-HRG complex) | ratio MR(+Heregulin)/MR(-Heregulin), against HER4-ECD (HER4 ECD-HRG complex) |
| --- | --- | --- | --- | --- | --- | --- |
| B1 | binds | binds |  |  |  |  |
| B2 |  |  | 4.85 | 3 | 23.9 | 6 |
